Experimental data: the supplement of paper PMC9732359
± gives the uncertainty stated by the source.

Experiment: protein stability index of a GFP-peptide fusion (yeast GPS) (PSI 1-4); higher = more stable; sorted into four equal gates, so the index is relative within each strain
How it was run: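 For each peptide, the protein stability index sums the read frequency in every gate after multiplying it by the gate number. Read frequencies came from plasmids that were PCR-amplified from each gate and Illumina-sequenced, with reads assigned to strains by barcodes. The gates were four equal bins of GFP/Cherry fluorescence ratio applied to mid-log yeast in leucine-free medium carrying a pooled library of tiled 17-residue yeast protein peptides fused downstream of GFP on a Cherry-expressing plasmid.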

| Sequence | protein stability index (doa10∆) | protein stability index (pdr5∆) | protein stability index (san1∆) | protein stability index (ubr1∆) |
| --- | --- | --- | --- | --- |
| MEQCKQRYQDLSQQQKD [YIL149C/MLP2] | 3.33 ± 0.086 | 3.3 ± 0.074 | 2.95 ± 0.067 | 2.95 ± 0.048 |
| KCQTCQEGMNECPGHFG [RPO21] | 3.34 ± 0.17 | 3.23 ± 0.094 | 3.51 ± 0.086 | 3.26 ± 0.091 |
| ADITDGNNTELTKTTVN [YCG1] | 3.19 ± 0.078 | 3.22 ± 0.068 | 3.33 ± 0.052 | 3.09 ± 0.053 |
| SMDVDDKNSGVKSEVDV [ITC1] | 2.52 ± 0.076 | 1.64 ± 0.039 | 1.78 ± 0.094 | 2.5 ± 0.043 |
| SQISPEKQTPNKKDKKK [RPN1] | 2.95 ± 0.063 | 2.9 ± 0.1 | 3.09 ± 0.06 | 3.12 ± 0.069 |
| TDYFLPKNYSLHGLRSF [YJL039C/NUP192] | 1.96 ± 0.061 | 2.13 ± 0.065 | 2.12 ± 0.055 | 2.11 ± 0.064 |
| NYIYAGYENGMLAQWDL [RPN14] | 2.92 ± 0.13 | 3.07 ± 0.14 | 3.06 ± 0.1 | 3.14 ± 0.078 |
| AKNEDDPAHSLNYTVIN [AAR2] | 2.93 ± 0.2 | 3.05 ± 0.18 | 2.68 ± 0.11 | 2.43 ± 0.18 |
| GVIALGQFVTLGCTLVT [RMP1] | 2.65 ± 0.24 | 1.36 ± 0.15 | 1.18 ± 0.15 | 1.5 ± 0.12 |
| TANAKHTSSNSREIAQP [SMB1] | 2.91 ± 0.14 | 2.94 ± 0.099 | 3.19 ± 0.07 | 3.33 ± 0.17 |
| KNFDMLNSMEKDRISHE [PCI8] | 2.33 ± 0.069 | 2.31 ± 0.076 | 2.35 ± 0.08 | 2.4 ± 0.043 |
| ARYNWICNPVHKHREAR [RPL15B] | 2.94 ± 0.083 | 2.68 ± 0.088 | 2.36 ± 0.11 | 3.04 ± 0.095 |
| RGREEAASFKKLYKTPI [PRE10] | 2.6 ± 0.17 | 3.06 ± 0.27 | 1.45 ± 0.2 | 2.97 ± 0.13 |
| LEDQQRQQKLLLETKLR [SWI1] | 2.81 ± 0.12 | 2.65 ± 0.14 | 3.12 ± 0.083 | 2.31 ± 0.17 |
| DKINKYSLIRETNGYDP [SNF5] | 1.51 ± 0.086 | 1.62 ± 0.12 | 1.92 ± 0.2 | 1.23 ± 0.19 |
| LSRPSLPKIKTVRKSIA [RPL35A] | 1.54 ± 0.06 | 1.94 ± 0.073 | 2.31 ± 0.059 | 1.85 ± 0.054 |
| YHFPIFNKYADPTLTTT [RPN4] | 2.05 ± 0.037 | 2.22 ± 0.048 | 2.24 ± 0.048 | 2.3 ± 0.036 |
| DRQLHEISTSKKNNLEF [RPN14] | 2.96 ± 0.064 | 3.13 ± 0.075 | 2.93 ± 0.071 | 3.17 ± 0.093 |
| TPDTKNFFHAKKKDPVN [SNF12] | 3.29 ± 0.097 | 2.97 ± 0.079 | 3.1 ± 0.068 | 3.17 ± 0.1 |
| MVSHKTARGKAALERLK [RPL16B] | 2.92 ± 0.21 | 2.74 ± 0.15 | 2.47 ± 0.21 | 2.21 ± 0.16 |
| STPDQRKRVYNIKFLSK [ESC2] | 3.34 ± 0.22 |  | 2.81 ± 0.08 | 2.93 ± 0.12 |
| NMVSLRGRNDTLERVHL [GRR1] | 2.85 ± 0.086 | 3.22 ± 0.14 | 2.39 ± 0.17 | 2.73 ± 0.096 |
| LMAQIFFGPTYYQRLRH [RPB2] | 2.02 ± 0.035 | 1.81 ± 0.032 | 2.08 ± 0.048 | 2.04 ± 0.031 |
| KKAVVKGTNGKKALKVR [RPL25] | 2.84 ± 0.094 | 2.24 ± 0.078 | 1.91 ± 0.11 | 2.75 ± 0.063 |
| GSNNGFGNKPAGSTGFS [YGR119C/NUP57] | 1.65 ± 0.076 | 1.24 ± 0.083 | 1.27 ± 0.15 | 2.22 ± 0.16 |
| PLLDIVLKADRSWNEPS [YML103C/NUP188] | 2.02 ± 0.15 | 2.86 ± 0.26 |  | 3.12 ± 0.11 |

| Sequence | protein stability index (doa10∆) | protein stability index (pdr5∆) | protein stability index (san1∆) | protein stability index (ubr1∆) |
| --- | --- | --- | --- | --- |
| SKEQIHGSIIILGMLSL [YCS4] | 2.45 ± 0.053 | 2.32 ± 0.05 | 2.72 ± 0.049 | 2.82 ± 0.045 |
| DDDILIIRPILGKVRFA [SRB4] | 1.51 ± 0.056 | 1.66 ± 0.092 | 1.93 ± 0.15 | 2.56 ± 0.05 |
| FVKGISRDIKALQDSLF [YML103C/NUP188] | 2.25 ± 0.071 | 2.18 ± 0.058 | 1.97 ± 0.096 | 1.7 ± 0.043 |
| HRVAENWRKQKGIDSVV [RPL32] | 2.55 ± 0.099 | 2.61 ± 0.17 |  | 2.25 ± 0.18 |
| KKMDDYIHRIGRTGRAA [PRP28] | 3.17 ± 0.1 | 3.28 ± 0.092 | 3.27 ± 0.045 | 3.35 ± 0.07 |
| LSVVKYLLASLKDSKDF [RPN9] | 2.19 ± 0.12 | 2.67 ± 0.16 |  |  |
| NSKPEKSSDSNDSNPSF [YLR335W/NUP2] | 2.47 ± 0.056 | 2.62 ± 0.064 | 2.25 ± 0.061 | 2.76 ± 0.036 |
| EVTKEEDIIANYASVYP [RRP43] | 2.77 ± 0.07 | 2.95 ± 0.057 | 3.06 ± 0.094 | 3.06 ± 0.055 |
| ANATAAESDVAKQLAAL [RPL16A] | 3 ± 0.043 | 2.84 ± 0.061 | 3.19 ± 0.046 | 3.23 ± 0.05 |
| CGGINDSIPYPQIVKLF [ECM29] | 1.56 ± 0.07 | 1.31 ± 0.06 | 1.96 ± 0.086 | 1.71 ± 0.049 |
| LQLAPGAHLGRFVIWTE [RPL4A] | 3.62 ± 0.21 | 2.98 ± 0.22 | 3.18 ± 0.099 | 3.27 ± 0.08 |
| AAFKDIAKRQFKEILTV [RRP40] | 2.27 ± 0.051 | 2.54 ± 0.062 | 2.58 ± 0.062 | 2.55 ± 0.05 |
| CIQVNCLNCEKSKLFEW [SNM1] | 3.11 ± 0.065 | 3.29 ± 0.058 | 3.13 ± 0.05 | 3.16 ± 0.052 |
| SESGSKLNVDQFISSRQ [POP1] | 3.27 ± 0.058 | 3.37 ± 0.063 | 3.29 ± 0.055 | 3.21 ± 0.068 |
| LKKFRESLVHSALCILK [BRR2] | 3.21 ± 0.12 | 2.1 ± 0.073 | 2.86 ± 0.078 | 2.97 ± 0.066 |
| LLSENRSEKSTTNAQTK [SRP54] | 2.86 ± 0.15 | 2.84 ± 0.099 | 2.88 ± 0.09 | 2.92 ± 0.064 |
| HTATDIYQTLIALNLDT [SNF2] | 2.11 ± 0.032 | 2.36 ± 0.034 | 1.88 ± 0.046 | 1.93 ± 0.024 |
| PALIRPGRIDRKILFEN [RPT2] |  | 2.21 ± 0.16 | 2.12 ± 0.2 | 2.58 ± 0.17 |
| MKYVRETSGVTTALLKD [MED8] | 2.72 ± 0.099 | 3.31 ± 0.12 | 3 ± 0.081 | 2.21 ± 0.24 |
| TEAVTQLIGSNIELHSL [PUP1] | 3.29 ± 0.2 | 3.23 ± 0.12 | 3.44 ± 0.11 | 2.96 ± 0.13 |
| SKDVSRLLSALGPRGVS [SRP21] | 3.09 ± 0.14 | 2.54 ± 0.28 |  | 2.83 ± 0.084 |
| RTLTAVHDKVLEDMVFP [RPS7B] | 3 ± 0.081 | 3.09 ± 0.069 | 2.81 ± 0.068 | 3.27 ± 0.074 |
| SEDSMNVQLRDVIATEP [SMD3] | 2.94 ± 0.1 | 3.36 ± 0.098 | 3.09 ± 0.065 | 3.23 ± 0.039 |
| KELKEKEAAESPEEADV [PUP2] | 3.44 ± 0.082 | 3.56 ± 0.086 | 3.02 ± 0.057 | 3.32 ± 0.054 |
| ETPEGQACGLVKNLSLM [RPB2] | 1.67 ± 0.13 | 2.25 ± 0.12 | 3.01 ± 0.11 | 3.03 ± 0.13 |
| LNLQFKAKVDDLVLGKP [YLR335W/NUP2] | 2.85 ± 0.11 | 3.39 ± 0.18 | 3.34 ± 0.067 | 3.3 ± 0.078 |
